Source: the supplement of paper PMC10724198
± gives the standard deviation of the averaged measurements.

Assays:
Saccharomyces cerevisiae [1] = experiment: protein stability index of tFT-peptide fusion (C-terminal peptide) (PSI (0-1 scale)); higher = more stable (slower turnover); conditions: genetic background: wild type; temperature: 30 C
Saccharomyces cerevisiae [2] = experiment: as above
Description: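 MPS profiling in S. cerevisiae of the tFT-X12 degron library: putative degron peptides plus stable controls, 12 aa, fused to the C-terminus of a sfGFP-mCherry timer. Cells are FACS-sorted into 8 mCherry/sfGFP bins and deep-sequenced. PSI runs from 0 (unstable) to 1 (stable). Backgrounds are wild type, das1Δ and doa10Δ at 30 °C, and wild type, das1Δ, cdc34-1 and cdc53-1 at 37 °C; 2-3 technical replicates each.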

[3] = genetic background: cdc34-1, temperature: 37 C
[4] = genetic background: cdc53-1, temperature: 37 C
[5] = genetic background: das1 deletion, temperature: 30 C
[6] = genetic background: das1 deletion, temperature: 37 C
[7] = genetic background: doa10 deletion, temperature: 30 C
[8] = genetic background: wild type, temperature: 30 C
[9] = genetic background: wild type, temperature: 37 C
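Also: PSI is a weighted mean of sequencing reads over stability bins, variants kept only with over 10 reads, mCherry proximal and sfGFP distal, peptide attached via GGGS linker.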

| Sequence | protein stability index (Saccharomyces cerevisiae [1]) | protein stability index (Saccharomyces cerevisiae [2]; [3]) | protein stability index (Saccharomyces cerevisiae [2]; [4]) | protein stability index (Saccharomyces cerevisiae [2]; [5]) | protein stability index (Saccharomyces cerevisiae [2]; [6]) | protein stability index (Saccharomyces cerevisiae [2]; [7]) | protein stability index (Saccharomyces cerevisiae [2]; [8]) | protein stability index (Saccharomyces cerevisiae [2]; [9]) |
| --- | --- | --- | --- | --- | --- | --- | --- | --- |
| VPTRRRGNRRPA | 0.788 ± 0.03 | 0.673 ± 0.022 | 0.7259 ± 0.0048 | 0.639 ± 0.021 | 0.725 ± 0.018 | 0.641 ± 0.011 | 0.653 ± 0.015 | 0.706 ± 0.02 |
| FRFSCLFSLFLS | 0.224 ± 0.011 | 0.413 ± 0.072 | 0.499 ± 0.01 | 0.478 ± 0.029 | 0.5168 ± 0.0051 | 0.169 ± 0.0091 | 0.143 ± 0.036 | 0.24 ± 0.025 |
| VVGLSLLFSGGV | 0.694 ± 0.021 | 0.687 ± 0.011 | 0.755 ± 0.021 | 0.644 ± 0.015 | 0.7583 ± 0.0016 | 0.662 ± 0.025 | 0.6572 ± 0.0032 | 0.727 ± 0.0093 |
| YFLFLRLVFLFF | 0.23 ± 0.032 | 0.217 ± 0.015 | 0.222 ± 0.032 | 0.233 ± 0.018 | 0.3874 ± 0.0034 | 0.186 ± 0.013 | 0.178 ± 0.018 | 0.257 ± 0.0034 |
| FSGFPLTLSPPL | 0.7224 ± 0.0042 | 0.717 ± 0.029 | 0.7715 ± 0.0044 | 0.67 ± 0.024 | 0.753 ± 0.013 | 0.685 ± 0.0098 | 0.679 ± 0.019 | 0.73 ± 0.018 |
| SPPSFPPLLLLS | 0.48 ± 0.022 | 0.668 ± 0.043 | 0.7368 ± 0.00078 | 0.608 ± 0.015 | 0.7386 ± 0.0036 | 0.326 ± 0.028 | 0.362 ± 0.022 | 0.541 ± 0.028 |
| VVVHFVLVCSTS | 0.289 ± 0.038 | 0.0899 ± 0.0074 | 0.237 ± 0.057 | 0.141 ± 0.026 | 0.284 ± 0.0084 | 0.116 ± 0.011 | 0.13 ± 0.024 | 0.271 ± 0.014 |
| VSFGELGVEVVG | 0.451 ± 0.022 | 0.709 ± 0.022 | 0.735 ± 0.041 | 0.529 ± 0.017 | 0.736 ± 0.017 | 0.538 ± 0.014 | 0.559 ± 0.018 | 0.7148 ± 0.0022 |
| TFRVLAFFCRVV | 0.367 ± 0.012 | 0.453 ± 0.0089 | 0.538 ± 0.015 | 0.47 ± 0.03 | 0.616 ± 0.059 | 0.308 ± 0.0053 | 0.286 ± 0.025 | 0.3902 ± 0.0029 |
| CMIACYALLRLL | 0.11 ± 0.039 | 0.176 ± 0.023 | 0.256 ± 0.011 | 0.346 ± 0.036 | 0.477 ± 0.0079 | 0.0799 ± 0.021 | 0.0777 ± 0.016 | 0.0702 ± 0.0087 |
